Measured values: paper PMC10786891, “Massively parallel profiling of RNA-targeting CRISPR-Cas13d”

B1: target 1 insC 3' of 8,insG 3' of 8 (mixed)
RNA 1: CACCCGUGCAAAAAUGCAGGGGUCUAAAACUGAGCGGAUAACCUCUCUAUGG
RNA 2: GGGAAUGGAUCCACAUCUACGAAUUCGUACCAUAGAGAGGUUAUCGCCGCUCACCGAGAUCGGAAGAGCACACGU
B2: target 1 insC 3' of 17,insC 3' of 15 (mixed)
RNA 1: CACCCGUGCAAAAAUGCAGGGGUCUAAAACUGAGCGGAUAACCUCUCUAUGG
RNA 2: GGGAAUGGAUCCACAUCUACGAAUUCGUACCAUAGCAGCAGGUUAUCCGCUCACCGAGAUCGGAAGAGCACACGU
B3: target 1 insU 3' of 2,insA 3' of 2 (mixed)
RNA 1: CACCCGUGCAAAAAUGCAGGGGUCUAAAACUGAGCGGAUAACCUCUCUAUGG
RNA 2: GGGAAUGGAUCCACAUCUACGAAUUCGUACCAUAGAGAGGUUAUCCGCUCUAACCGAGAUCGGAAGAGCACACGU
B4: target 2 MT 5'PFS ACU 3'PFS ACA (mixed)
RNA 1: CACCCGUGCAAAAUUGCAGGGGUCUAAAACCUUCUCCAAAUUGUUUCAUCCU
RNA 2: GGGAAUGGAUCCACAUCUACGAAUUCACUAGGAUGAAACAAUUUGGAGAAGACAAGAUCGGAAGAGCACACGU
B5: target 2 MT 5'PFS GAA 3'PFS AGA (mixed)
RNA 1: CACCCGUGCAAAAUUGCAGGGGUCUAAAACCUUCUCCAAAUUGUUUCAUCCU
RNA 2: GGGAAUGGAUCCACAUCUACGAAUUCGAAAGGAUGAAACAAUUUGGAGAAGAGAAGAUCGGAAGAGCACACGU
B6: target 2 MT 5'PFS AAA 3'PFS UUA (mixed)
RNA 1: CACCCGUGCAAAAUUGCAGGGGUCUAAAACCUUCUCCAAAUUGUUUCAUCCU
RNA 2: GGGAAUGGAUCCACAUCUACGAAUUCAAAAGGAUGAAACAAUUUGGAGAAGUUAAGAUCGGAAGAGCACACGU
B7: target 2 MT 5'PFS GAA 3'PFS AGG (mixed)
RNA 1: CACCCGUGCAAAAUUGCAGGGGUCUAAAACCUUCUCCAAAUUGUUUCAUCCU
RNA 2: GGGAAUGGAUCCACAUCUACGAAUUCGAAAGGAUGAAACAAUUUGGAGAAGAGGAGAUCGGAAGAGCACACGU
B8: target 2 MT 5'PFS AAU 3'PFS CAC (mixed)
RNA 1: CACCCGUGCAAAAUUGCAGGGGUCUAAAACCUUCUCCAAAUUGUUUCAUCCU
RNA 2: GGGAAUGGAUCCACAUCUACGAAUUCAAUAGGAUGAAACAAUUUGGAGAAGCACAGAUCGGAAGAGCACACGU
B9: target 2 MT 5'PFS ACU 3'PFS ACU (mixed)
RNA 1: CACCCGUGCAAAAUUGCAGGGGUCUAAAACCUUCUCCAAAUUGUUUCAUCCU
RNA 2: GGGAAUGGAUCCACAUCUACGAAUUCACUAGGAUGAAACAAUUUGGAGAAGACUAGAUCGGAAGAGCACACGU
B10: target 2 MT 5'PFS GAA 3'PFS AGU (mixed)
RNA 1: CACCCGUGCAAAAUUGCAGGGGUCUAAAACCUUCUCCAAAUUGUUUCAUCCU
RNA 2: GGGAAUGGAUCCACAUCUACGAAUUCGAAAGGAUGAAACAAUUUGGAGAAGAGUAGAUCGGAAGAGCACACGU
B11: target 2 MT 5'PFS GUU 3'PFS CCG (mixed)
RNA 1: CACCCGUGCAAAAUUGCAGGGGUCUAAAACCUUCUCCAAAUUGUUUCAUCCU
RNA 2: GGGAAUGGAUCCACAUCUACGAAUUCGUUAGGAUGAAACAAUUUGGAGAAGCCGAGAUCGGAAGAGCACACGU
B12: target 2 MT 5'PFS AUU 3'PFS UCG (mixed)
RNA 1: CACCCGUGCAAAAUUGCAGGGGUCUAAAACCUUCUCCAAAUUGUUUCAUCCU
RNA 2: GGGAAUGGAUCCACAUCUACGAAUUCAUUAGGAUGAAACAAUUUGGAGAAGUCGAGAUCGGAAGAGCACACGU
B13: target 2 MT 5'PFS CCG 3'PFS CCU (mixed)
RNA 1: CACCCGUGCAAAAUUGCAGGGGUCUAAAACCUUCUCCAAAUUGUUUCAUCCU
RNA 2: GGGAAUGGAUCCACAUCUACGAAUUCCCGAGGAUGAAACAAUUUGGAGAAGCCUAGAUCGGAAGAGCACACGU
B14: target 2 MT 5'PFS AGC 3'PFS CCG (mixed)
RNA 1: CACCCGUGCAAAAUUGCAGGGGUCUAAAACCUUCUCCAAAUUGUUUCAUCCU
RNA 2: GGGAAUGGAUCCACAUCUACGAAUUCAGCAGGAUGAAACAAUUUGGAGAAGCCGAGAUCGGAAGAGCACACGU
B15: target 2 MT 5'PFS ACU 3'PFS ACC (mixed)
RNA 1: CACCCGUGCAAAAUUGCAGGGGUCUAAAACCUUCUCCAAAUUGUUUCAUCCU
RNA 2: GGGAAUGGAUCCACAUCUACGAAUUCACUAGGAUGAAACAAUUUGGAGAAGACCAGAUCGGAAGAGCACACGU
B16: target 2 MT 5'PFS CCG 3'PFS CCC (mixed)
RNA 1: CACCCGUGCAAAAUUGCAGGGGUCUAAAACCUUCUCCAAAUUGUUUCAUCCU
RNA 2: GGGAAUGGAUCCACAUCUACGAAUUCCCGAGGAUGAAACAAUUUGGAGAAGCCCAGAUCGGAAGAGCACACGU
B17: target 2 MT 5'PFS AAA 3'PFS UUU (mixed)
RNA 1: CACCCGUGCAAAAUUGCAGGGGUCUAAAACCUUCUCCAAAUUGUUUCAUCCU
RNA 2: GGGAAUGGAUCCACAUCUACGAAUUCAAAAGGAUGAAACAAUUUGGAGAAGUUUAGAUCGGAAGAGCACACGU
B18: target 2 MT 5'PFS AGC 3'PFS CCA (mixed)
RNA 1: CACCCGUGCAAAAUUGCAGGGGUCUAAAACCUUCUCCAAAUUGUUUCAUCCU
RNA 2: GGGAAUGGAUCCACAUCUACGAAUUCAGCAGGAUGAAACAAUUUGGAGAAGCCAAGAUCGGAAGAGCACACGU
B19: target 2 MT 5'PFS UCG 3'PFS CCG (mixed)
RNA 1: CACCCGUGCAAAAUUGCAGGGGUCUAAAACCUUCUCCAAAUUGUUUCAUCCU
RNA 2: GGGAAUGGAUCCACAUCUACGAAUUCUCGAGGAUGAAACAAUUUGGAGAAGCCGAGAUCGGAAGAGCACACGU
B20: target 2 MT 5'PFS AAU 3'PFS CAA (mixed)
RNA 1: CACCCGUGCAAAAUUGCAGGGGUCUAAAACCUUCUCCAAAUUGUUUCAUCCU
RNA 2: GGGAAUGGAUCCACAUCUACGAAUUCAAUAGGAUGAAACAAUUUGGAGAAGCAAAGAUCGGAAGAGCACACGU
B21: target 2 MT 5'PFS AUU 3'PFS CGU (mixed)
RNA 1: CACCCGUGCAAAAUUGCAGGGGUCUAAAACCUUCUCCAAAUUGUUUCAUCCU
RNA 2: GGGAAUGGAUCCACAUCUACGAAUUCAUUAGGAUGAAACAAUUUGGAGAAGCGUAGAUCGGAAGAGCACACGU
B22: target 2 MT 5'PFS AUG 3'PFS CAA (mixed)
RNA 1: CACCCGUGCAAAAUUGCAGGGGUCUAAAACCUUCUCCAAAUUGUUUCAUCCU
RNA 2: GGGAAUGGAUCCACAUCUACGAAUUCAUGAGGAUGAAACAAUUUGGAGAAGCAAAGAUCGGAAGAGCACACGU
B23: target 2 MT 5'PFS GAA 3'PFS AGC (mixed)
RNA 1: CACCCGUGCAAAAUUGCAGGGGUCUAAAACCUUCUCCAAAUUGUUUCAUCCU
RNA 2: GGGAAUGGAUCCACAUCUACGAAUUCGAAAGGAUGAAACAAUUUGGAGAAGAGCAGAUCGGAAGAGCACACGU
B24: target 2 MT 5'PFS AUG 3'PFS CAU (mixed)
RNA 1: CACCCGUGCAAAAUUGCAGGGGUCUAAAACCUUCUCCAAAUUGUUUCAUCCU
RNA 2: GGGAAUGGAUCCACAUCUACGAAUUCAUGAGGAUGAAACAAUUUGGAGAAGCAUAGAUCGGAAGAGCACACGU

Target: T1, EsCas13d, nuclease-dead (Eubacterium siraeum, UniProt B0MS50, R295A;H300A;R849A;H854A)
T1 sequence: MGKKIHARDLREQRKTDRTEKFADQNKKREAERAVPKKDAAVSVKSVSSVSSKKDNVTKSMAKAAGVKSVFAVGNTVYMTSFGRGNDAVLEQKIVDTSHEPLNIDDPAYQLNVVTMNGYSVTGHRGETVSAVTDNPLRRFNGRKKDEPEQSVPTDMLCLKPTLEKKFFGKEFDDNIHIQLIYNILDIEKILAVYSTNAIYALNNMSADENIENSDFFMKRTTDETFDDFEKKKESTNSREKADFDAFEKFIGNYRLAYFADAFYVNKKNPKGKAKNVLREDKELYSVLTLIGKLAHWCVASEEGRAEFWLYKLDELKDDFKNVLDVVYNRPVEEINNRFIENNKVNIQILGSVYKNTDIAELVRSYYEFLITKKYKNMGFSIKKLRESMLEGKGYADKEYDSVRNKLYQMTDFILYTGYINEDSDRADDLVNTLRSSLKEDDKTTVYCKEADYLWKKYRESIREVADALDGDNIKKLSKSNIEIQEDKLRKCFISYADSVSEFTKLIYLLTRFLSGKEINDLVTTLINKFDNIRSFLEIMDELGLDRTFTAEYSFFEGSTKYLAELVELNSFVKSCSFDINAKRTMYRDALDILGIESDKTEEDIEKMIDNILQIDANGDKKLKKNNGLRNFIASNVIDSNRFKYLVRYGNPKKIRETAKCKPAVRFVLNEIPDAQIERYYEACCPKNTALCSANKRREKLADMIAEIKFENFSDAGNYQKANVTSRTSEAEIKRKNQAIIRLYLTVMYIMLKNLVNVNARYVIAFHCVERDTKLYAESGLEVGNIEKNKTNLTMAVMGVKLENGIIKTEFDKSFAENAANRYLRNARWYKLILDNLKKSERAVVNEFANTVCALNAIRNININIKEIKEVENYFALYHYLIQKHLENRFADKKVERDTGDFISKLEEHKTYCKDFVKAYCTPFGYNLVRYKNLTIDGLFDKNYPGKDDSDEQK
Assay: crRNA (strand 1, pre-loaded); Mg2+; 40 mM Tris-HCl pH 7.5, 150 mM NaCl, 6 mM MgCl2, 1 mM DTT, 0.1% Tween-20, 0.2 mg/ml BSA; 25 C; 10 min per concentration, then washed
Conditions: tags: His6-TwinStrep-SUMO cleaved; N-terminal SNAP kept (SNAP-Surface 488); label: 3' end held by stalled T7 RNA polymerase

| Binder | Kd [nM] |
| --- | --- |
| B1 | 10.6 ± 0.5 |
| B2 | 38 ± 6 |
| B3 | 10.9 ± 0.5 |
| B4 | 4.2 ± 0.7 |
| B5 | 5.4 ± 0.9 |
| B6 | 5.6 ± 1.5 |
| B7 | 6.9 ± 0.7 |
| B8 | 5.2 ± 1 |
| B9 | 7.3 ± 1.3 |
| B10 | 15.3 ± 2.4 |
| B11 | 14.3 ± 1.2 |
| B12 | 7.8 ± 0.7 |
| B13 | 8.4 ± 1.6 |
| B14 | 9.3 ± 1 |
| B15 | 9.3 ± 2.2 |
| B16 | 3.1 ± 0.5 |
| B17 | 23 ± 10 |
| B18 | 78 ± 32 |
| B19 | 90 ± 40 |
| B20 | 4.3 ± 0.7 |
| B21 | 6.9 ± 0.9 |
| B22 | 9 ± 1.4 |
| B23 | 6.3 ± 1.1 |
| B24 | 7.6 ± 0.8 |
